Measurements: the nanobody polyreactivity screen of Harvey et al. (2022)

Assay: yeast display, Sf9 membrane polyspecificity reagent, FACS + sequencing; frameworks hold sequencing errors
Outline: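 Polyreactivity labels are assigned by the sorting gate from which each nanobody was recovered. The gates were low and high (top ~1%), set on anti-HA fluorescence for expression and streptavidin fluorescence for reagent binding. Before sorting, galactose-induced (36–48 hours) yeast display cells were stained for 1 hour at 4 °C with 10% biotinylated, detergent-solubilized Sf9 membrane reagent.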

QFQLVESGGGLVQAGGSLRLSCAASGFTFYYYAMGWYRQAPGKERELVAAISSSGSSTYYADSVKGRFTISRVNAKNTVYLQMNSLKREDTAVYYWNARRYEYLWGDYWGQGTQVTVSS
polyreactivity (PSR sort gate): high polyreactivity

QVQLVESGVGLVQAGGSLRLSCAASGFTFNYNAMGWYRQAPGKERELVADISRSGGSTYYADSVKGRFTISRDNAKNTVYLQMNSLKPEDTPVYYCAAVRAIGKYGYWGHGTQVTVSS
polyreactivity (PSR sort gate): high polyreactivity

QVQLVESGGGLVQAGGSLRLSCAASRITSYGYAMGWYRQAPGKERELVAAISRSGGTTYYADSVKGRFTISRDNAKNTVYVQMNILKPEDTAVYYCAVGKSHRGGGVTKFNYWGQGTQVTVSS
polyreactivity (PSR sort gate): low polyreactivity

QVQLVESGGGLVQAGGSLRLSCAASGSIFSGNEMGWYRQAPGKDSELVATISWSGGSTNYADSVKGGFTISRDNAKNTVYLQMNSLKPEDTSVYYCAAVPGWVRQADGWVLSLLDYWGQGTQVTVSS
polyreactivity (PSR sort gate): low polyreactivity

QVQLVESGGGLVQAVGSLRLICAPSGSIFGTNAMGWYRQAPGKERELVATISYGDGSTYYADSVKGRFTISRDNAKNTVYLQMNSLKPEDTAVYYCNTGVYSSGGPLDYWGQGTQVTVSS
polyreactivity (PSR sort gate): low polyreactivity

QVQLVESAGGLVQAGVSLRLSCDASGRIFRHNTMGWYRQAPGKERELVAAIRYSGGRTYYADSVKGRFTISRDNAKNTVYLQMNSLKPEDTAVYYCAKDTGQGYYWGQGTQVTVSS
polyreactivity (PSR sort gate): high polyreactivity

QVQLVESGGGLVQAGGSLRLSCAASGRTFFYYAMGWYRQAPGKERELVAAISTGGSTNYADSVKGRFTISRDNAKNTVYLQMNSLKPEDTAVYYCNADYDKGVRFNFNASFGEFDYWGQGTQVTVSS
polyreactivity (PSR sort gate): low polyreactivity

QVQLVESGGGLVQAGGSLRLSCAASGFIFRFYAMGWYRQAPGKEREVVAVISRSGGSTYYADSVKGRFTISRDHAKNTVYLQMNSLKPEDTAVYYCAATFYWDSVRRGDYDYWGQGTQVTGSS
polyreactivity (PSR sort gate): high polyreactivity

QVQLVESAGGLVQAGGSLSLSCAASGFIFDGYAMGWYRQAPGKERELVAAINFSGGSTYYADSVKGRFTISRDNAKNTVYLQMNSLKPEDTSVYYCNADLEWYWVQFGYGYWGQGTQVTVSS
polyreactivity (PSR sort gate): low polyreactivity

QVQLVESGGGLVQAGGSLRLSCADSGSTFQANAMGWYRQAPGKERELVATISNDGSTKYADSVKGRFTISRDNAKNTVYLQMNSLKPEDTALYYCAADSARHGRDTYQPEYRNDYWGQGTQVTVSS
polyreactivity (PSR sort gate): low polyreactivity

QDQLVESCGALVQAGGSLRLSCAASGSTFNFYAMGWYRQAPGKERELVAAITWRGGSTYYADSVKGRFTISRDFAKNTVYLQMNSLKPEDSAVYYCAAARGKDGYWGQGTQVNVSS
polyreactivity (PSR sort gate): high polyreactivity

QVQLVESGGGLVQAGGSLRLSCAASGFIFYSYAMGWYRQAPGKEREFVASISGRTGSTYYADSVKGRFTISRDNAKNTVYLQMNSLKPEDTAVYYCNARIVHSFRYDYWGQGTQVTVSS
polyreactivity (PSR sort gate): low polyreactivity

QVQHVESGGGLVQAGGSLRLSCAASGRTLRYYAMGGYRRAPGKERELVAAITKSGGSPYYADSVKGRFTISRDNAKNTVYLQMYSLKPEDTAVYYCNKVTYSRAQYIGGAGYYWGQGTQVTVSS
polyreactivity (PSR sort gate): high polyreactivity

QVQLVESGGGLVQAGGSLRLSCAASGSILVRYSMGWYRQAPGKERELVAAITSGGSTYADSVKGRFTISRDNAKNTVYLQLNSLNPEDTAVYYCARDYFNREAFDYWGQGTQVTVSS
polyreactivity (PSR sort gate): low polyreactivity

QVQLVESGGGLVQAGGSLRLSCAASGRTSLVYAMGWYRQAPGKERQLVAAISRGGTTNYADSVKGRFTISRDNAKNTVYLQMNSLKPEDTAVYYCAARTIYHVRPMYYWGQGTQVTVSS
polyreactivity (PSR sort gate): high polyreactivity

QVQLVESGGGLVQAGGSLSLSCAASGSIFGGYTMGRKRQAPGKERELVAAISSVGSTYYADSVKGRFTISRDNAKNTVYLQMNSLKTEDTAVYYCATSTYAYRRNSNYYSLPRFGYWGQGTQVSVSS
polyreactivity (PSR sort gate): high polyreactivity

QVQLVESGGGLVQAGGSLRLSCAASGRTFPYYAMGWYRQAPGKERELVAAITGSGGRTYYADSVKGRFTISRDNAKNTVYLQMNRLKPEDTAVYYCATDRGYYTWRYGRNDYWGQGTLVTVSS
polyreactivity (PSR sort gate): high polyreactivity

QVQLVESGGGLVQAGGSLRLSCAASGYTFKRYAMGWYRQAPGKESDLVASITRRGGSTYYADSVKGRFTISRDNAKNTVNLQMNSLKPEDTAVYDCAKSIPLGYTIYDYWGQGTQVTVSS
polyreactivity (PSR sort gate): high polyreactivity

QVQLVESGGGLVQAGGSLRLSCAASGSTFQTYAMGWYRQAPGKERELVAAITSGGSTNYADSVNGRFTISRDNAKNTVYLQMNSLKPEDTAVYYCAGRQIYQTSEHRLQYDYWGQGTQVTVSS
polyreactivity (PSR sort gate): low polyreactivity

QVQLVESGGGLVQAGGSLPLSCAASGFISWGNAMGWSRQAPGKARELVAAISWRDARTYYADSVKGRFTISRDNAKNTVYLQMNSLKPEATAVYYCNAVTAYVSRNLGGYRWFDYWGQGTQVTVSA
polyreactivity (PSR sort gate): low polyreactivity

QVLLQESGGGLVQAGGSLRLSCAASGNIFSAGGMGWYRQAPVNERELVAGIGTGTSTNYADSVKGRFTISRDNAKNTVYLQMTSLKPEVTAVYYCAAAYYSGLSHWYWGQGTQVTVSS
polyreactivity (PSR sort gate): low polyreactivity

QVQLVESVLGLVQAGGSLRFSCAASGSTIVRYAMVWYRPAPGKERELVAAISSSGATTYYADSVKGRFTISRDNAKNTVYLQMNSLKPEYTAVYYCDKYCRATRGLDNYWGQGTQVTVSS
polyreactivity (PSR sort gate): high polyreactivity

QVQLVESGGGLVQAGGSLRLSCAASGFTFETNAMGWYRQAHGKERELVATITGGGSTNYADSVKGRFTISRDNAKNTVYLQMNSLKPEDTAVYYCNAVHEASYAGVDYWGQGTQVTVSS
polyreactivity (PSR sort gate): low polyreactivity

QVQLVESGGGLVQAGGSLRLSCAASGSIFGYYAMGWYRQAPGKEREFVATISTSGVSTYYADSVKGRFTISRDNAKNTVYLQMNSLKPEDTAVYYCNAYLWYTGWDYDGEDYWGQGTQVTVSS
polyreactivity (PSR sort gate): low polyreactivity

QVQHVESGRGLVQAGGSLRLSCAAYGRIPYKAMGWYKQAPGKERELVAAISRSGTRTYYADSVKGRYTISRDNAKNTVYLQMISLKPQDTAVYYCAAPVSGYSSDYWGQGTQVTVSS
polyreactivity (PSR sort gate): high polyreactivity

QVQLVESVGGLVQAGGSLRLSCAASGFILRVNDMGWYRQAPGKERELVAAISQGDGSTYYADSVKGRFTISSDNAKNSVYLQMNSLKPEDNAVYYCNAELYRDLGGYDHWGQGTQVTVSS
polyreactivity (PSR sort gate): low polyreactivity

QVQLVESGGGLVQAGGSLRLSCADSGGTFGYYVMGWNRQAPGKERELVAAITSGGSTKYADSVKGRFTISRDNAKNTVYLQMNSLKPEDTAVYYCAADYPYYPFSSIYDYWGQGTQVTVSS
polyreactivity (PSR sort gate): low polyreactivity

QVQLVESGGGLVQAGGSLRLSCAASGSIIKPYAMGWYRQAPGKERDLVAAIRSSGGRTNYADSVKGRFTISRDNAKNTVYLQMNSLKPEDTAVYYCAALVRVTGTYYTKYDFWGQGNQVTVSS
polyreactivity (PSR sort gate): high polyreactivity

QVQLVESGGGLVQAGGSLRLSCAASASIFYRYAMGWFRQAPGKERELVAAISWRVTSTYYADSVKGRFTISRDNSKNTVYLQMNSLKPEDTAVYYCATAGTYTGGEGYWGQGTQVTVSS
polyreactivity (PSR sort gate): high polyreactivity

QVQLVESGGGLVQAGGSLRLSCAASGSTIGDNAMGWYRQAPGKERELVASITGGGGSTYYADSVKGRFTISRDNAKNTVYLQMNSLKPEDTAVYYCAAVYQSYTYYLPKYWSFYQNDYWGQGTQVTVSS
polyreactivity (PSR sort gate): low polyreactivity

QVQLVESGGGLVQAGGSLRLSCAASGFTFIGYAMGWNRQAPGKERELVADITYSGSSTYYADSVKGRFTISRDNAKNTVYFQMNSLKPEDTAVYYCAAEAYYYWFDVVYWGQGSQVTVSS
polyreactivity (PSR sort gate): low polyreactivity

QVQLVESGGGLVQAGGSLRLSCAASGNTVFKNAMVWYRQAPGKERELVAAISKRGGSTYYADSVKGRFTISRDNAKNTVYIQMNSLIPEDTAVYYCAADTFGVYASTYDYWGQGTQVTVSS
polyreactivity (PSR sort gate): high polyreactivity

QVQLVESGGGLVQAGGSLRLSCAASGITFKAYVMGWYRQAPGKERELVAAITRSGGRTYYADSVKGRFTISRDNAKNTVFLQMNSLKPEDTAVYYCAADGPHHGDGYWGQGTQVTVSS
polyreactivity (PSR sort gate): high polyreactivity

QVQLVESGGGLVQAGGSLRLSCAASGTFSFYAMGWYRQAPGKERELVATIRSGGRTYYADSVKGRFTISRDNAKNTVYFQINSLKPEDTAVYYCAKTGFLGLRQYGYWGQGTQVTVSS
polyreactivity (PSR sort gate): high polyreactivity

QVQLVESAGGLVQAGGSLRLSCAASGSTFSYNAMGWYRQAPGKEREFVAAISSRGGNTFYADSVKGRFTISRDNAKNTVYLQMNSLKPEDTAVYYCAARFNRPYDYWGQGTQVTVSS
polyreactivity (PSR sort gate): low polyreactivity

QVQLVESGGGLVQAGGSLRLSCAASGRIFSHYAMAWYRQAPGKERELVAAITSDRSTNYADSVKGRFTISRDNANNTVYLQMNSLKPDDTAVYYCAKYVHIPYYYYLFGSYDYWGQGTQVTVSS
polyreactivity (PSR sort gate): low polyreactivity

QVQLVESGGGLVQAGGSLRLSCAASGRIFGYNAMGWYRQAPGKERELVATISGRGGSTYYADSVKGRFTISRDNAKNTVYLQMNSLKPEDTAVYYCNAKRKYGRFPKKYYYWGQGTQVTVSS
polyreactivity (PSR sort gate): high polyreactivity

QVQLVESGGGLVQAGGSLRLSCAASGNIFESYGMGWYRQAPGKERELVATINTSSGSTYYADSVKGRFTISRDNAKNTVYLQMNSLKPEDTAVYYCAVEGDYWYVSMYYWGQGTQVTVSS
polyreactivity (PSR sort gate): low polyreactivity

QVQLVESGGGLVQAGGSLRLSCAASGSIFDWNAMGWYRKAPGKERELVASITGSGGGTNYADSVKGRFTISRDNAKNTVYLQMNSLKPEDTAVYYCAAEVDYSYWPEYARKYYYWGQGTQVTVSS
polyreactivity (PSR sort gate): low polyreactivity

QVQLVESGGGLVQAGGSLRLSCAASGRILVPYAMGWYRQAPGKERELVDAISSGGSTKYADSVKGRFTISRDNAKNTVYLQMNSLKPEDTAVYYCASRIGSGSYPYPRYDYWGQGTQVTVSS
polyreactivity (PSR sort gate): high polyreactivity

QVQVVESRGGLVQAGGSLRLSCAASGLIFLGYAMGWYRQAPGKERELVASIRTGGSTSYADSVKGRFTISRDNENNRVYLQMNSLKPEDTAVYYCAADRGRPNLPGDYWGQGSQVTVSS
polyreactivity (PSR sort gate): low polyreactivity

QVQLVESGGGLVQAGGSLRLSCAASGSTFTPYAMGWYRQAPGKERELVAAISWSDDSTYYADSVKGRFTISRDIAKNTVYLQMNSLKPEDTAVYYCAASAYVDYGVYTYIMDYWGQGTQVTVSS
polyreactivity (PSR sort gate): high polyreactivity

QVQLVESGGGLVQAGGSLRLSCAASGRIFYYNTMGWYRQAPGKERELVAAISYRGGSTYYADSVKGRFTISRDNAKNTVYLQMNSLKTEDTAVYYCAAPVRQSSYTRYDSWGQGTQVTVSS
polyreactivity (PSR sort gate): high polyreactivity
